Reference: patent US10786576B2, “Fatty acids and their use in conjugation to biomolecules” (Novartis AG, dated 2020)
Positions of bridges follow the written chain, without caps; N, C: chain ends. Non-standard residues stand in square brackets, D forms with d. No end group written: not given here. pGlu = O=C1CC[C@@H](C(=O)O)N1; Nle = CCCC[C@H](N)C(=O)O; I‑37 = not defined here

Experiments:
[1] = biological target: RXFP1
[2] = biological target: RXFP1; remark: listed apart in the source
[3] = biological target: oxytocin receptor
[4] = biological target: MC3R
[5] = biological target: MC4R
[6] = biological target: APJ (human, UniProt P35414); assay: cell-based or functional assay
[7] = biological target: hFGF23-variant of Example 28B

MC3R, sequence (P41968 whole entry): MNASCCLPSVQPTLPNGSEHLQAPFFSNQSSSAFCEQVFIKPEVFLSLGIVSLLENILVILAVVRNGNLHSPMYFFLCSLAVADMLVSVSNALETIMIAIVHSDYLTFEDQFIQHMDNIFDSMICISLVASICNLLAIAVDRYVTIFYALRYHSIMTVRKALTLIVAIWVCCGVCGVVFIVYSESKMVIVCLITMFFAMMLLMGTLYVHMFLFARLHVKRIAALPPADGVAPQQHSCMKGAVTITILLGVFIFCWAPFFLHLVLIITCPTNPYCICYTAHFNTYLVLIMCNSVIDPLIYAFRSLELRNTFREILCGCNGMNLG
oxytocin receptor, sequence (P30559 whole entry): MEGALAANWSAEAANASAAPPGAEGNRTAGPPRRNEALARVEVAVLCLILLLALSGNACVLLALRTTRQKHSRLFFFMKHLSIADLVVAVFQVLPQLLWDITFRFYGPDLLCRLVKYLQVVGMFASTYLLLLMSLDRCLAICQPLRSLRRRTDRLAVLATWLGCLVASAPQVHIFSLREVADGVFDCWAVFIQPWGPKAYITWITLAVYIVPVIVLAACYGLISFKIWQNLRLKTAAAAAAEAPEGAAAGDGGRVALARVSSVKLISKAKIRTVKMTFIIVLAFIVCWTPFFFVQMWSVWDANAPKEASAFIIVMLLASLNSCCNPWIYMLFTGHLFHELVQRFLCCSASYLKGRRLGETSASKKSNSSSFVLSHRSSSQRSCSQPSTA

Serelaxin (ligand)
cAMP (HTRF), Ec50 (nM), 0% Plasma [1]: 8 nM | cAMP (HTRF), Ec50 (nM), 4% Plasma [1]: 0.3 nM | cAMP (HTRF), Ec50 (nM), 10% Plasma [1]: 0.4 nM | cAMP (HTRF), Ec50 (nM), 600 uL BSA [1]: 0.7 nM | cAMP (HTRF), agonist mode, EC50 [2]: 1.12 nM

Oxytocin (peptide)
Emax (the concentration where the reference agonist elicited a maximal response), calcium flux [3]: 1.25 µM

B1: Example 27B: Di-fatty acid conjugate of AgRP(83-132) (AgRP+2 FA) (ligand)
chain: {I‑37}-SSRRCVRLHESCLGQQVPCCDPCATCYCRFFNAFCYCRK(I‑37)LGTAMNPCSRT
modifications: disulfide 12-26, 19-37, 5-20, 23-47, 28-35; not fully specified; printed as Ser-Ser-Arg-Arg-Cys-Val-Arg-Leu-H is-Glu-Ser-Cys-Leu-Gly-Gln-Gln-Val-Pro-Cys-Cys-Asp-Pro-Cys-Ala-Thr-Cys-Tyr-Cys-Arg-Phe-Phe-Asn-Ala-Phe-Cys-Tyr-Cys-Arg-Lys-Leu-Gly-Thr-Ala-Met-Asn-Pro-Cys-Ser-Arg-Thr; reading uncertain
MC3R EC50 [nM] (cAMP assay, antagonist protocol) [4]: 65 nM | MC4R EC50 [nM] (HTRF cAMP assay) [5]: 167 nM

SSRRCVRLHESCLGQQVPCCDPCATCYCRFFNAFCYCRKLGTAMNPCSRT (ligand, disulfide 12-26, 19-37, 5-20, 23-47, 28-35) [AgRP(83-132)]
MC3R EC50 [nM] (cAMP assay, antagonist protocol) [4]: 12 nM

B2: pE-R-P-C*-L-S-C*-K-G-P-(D-Nle)-NH(Phenethyl) (disulfide C4-C7) (peptide)
peptide: ERPCLSCKGPL
modifications: pE (pyroglutamate) at the N-terminus; D-Nle at position 11; C-terminal NH(Phenethyl); disulfide C4-C7
hAPJ Ca2+ Flux EC50 [6]: 3 nM

B3: transglutaminase enzyme (Ajinomoto) (enzyme)
chain: DSDDRVTPPAEPLDRMPDPYRPSYGRAETVVNNYIRKWQQVYSHRDGRKQQMTEEQREWLSYGCVGVTWVNSGQYPTNRLAFASFDEDRFKNELKNGRPRSGETRAEFEGRVAKESFDEEKGFQRAREVASVMNRALENAHDESAYLDNLKKELANGNDALRNEDARSPFYSALRNTPSFKERNGGNHDPSRMKAVIYSKHFWSGQDRSSSADKRKYGDPDAFRPAPGTGLVDMSRDRNIPRSPTSPGEGFVNFDYGWFGAQTEADADKTVWTHGNHYHAPNGSLGAMHVYESKFRNWSEGYSDFDRGAYVITFIPKSWNTAPDKVKQGWP
TGase labelling of hFGF23-variant with intermediate 25d, LCMS [7]: 90%

{I‑37}-SSRRCVRLHESCLGQQVPCCDPCATCYCRFFNAFCYCRKLGTAMNPCSRT (ligand, disulfide 12-26, 19-37, 5-20, 23-47, 28-35; reading uncertain) [Example 27A: Mono fatty acid conjugate of AgRP (AgRP+1FA)]
MC3R EC50 [nM] (cAMP assay, antagonist protocol) [4]: 7 nM | MC4R EC50 [nM] (HTRF cAMP assay) [5]: 18 nM

B4: pE-R-P-R-L-C*-H-K-G-P-Nle-C*-F-OH (Disulfide C6-C12) (peptide)
peptide: [pGlu]RPRLCHKGP[Nle]CF-OH
modifications: disulfide 6-12
SMILES: CCCC[C@@H]1NC(=O)[C@@H]2CCCN2C(=O)CNC(=O)[C@H](CCCCN)NC(=O)[C@H](Cc2c[nH]cn2)NC(=O)[C@@H](NC(=O)[C@H](CC(C)C)NC(=O)[C@H](CCCNC(=N)N)NC(=O)[C@@H]2CCCN2C(=O)[C@H](CCCNC(=N)N)NC(=O)[C@@H]2CCC(=O)N2)CSSC[C@@H](C(=O)N[C@@H](Cc2ccccc2)C(=O)O)NC1=O
hAPJ Ca2+ Flux EC50 [6]: 1.04 nM
